Measured values taken from patent publication US20230042694A1 (SUZHOU CUREMED BIOMEDICAL TECHNOLOGY, published 2023).

B1: recombinant polypeptide K19-CHIP (N-K19 (first polypeptide)-linker peptide-CHIP (second polypeptide)-C) (other)
chain: MDLGKKLLEAARAGQDDEVRILMANGADVNASDRGGGTPLHLAAAGGHLEIVEVLLKRGADVSAADLHGQSPLHLAAMVGHLEIVEVLLKYGADVNAKDTMGATPLHLAARSGHLEIVEELLKNGADMNAQDKFGKTTFDISTDNGNEDLAEILQKLSGSGSGSGRLNFGDDIPSALRIAKKKRWNSIEERRIHQESELHSYLSRLIAAERERELEECQRNHEGDEDDSHVRAQQACIEAKHDKYMADMDELFSQVDEKRKKRDIPDYLCGKISFELMREPCITPSGITYDRKDIEEHLQRVGHFDPVTRSPLTQEQLIPNLAMKEVIDAFISENGWVEDYGS
B2: recombinant polypeptide CRBN-K19 (N-CRBN (second polypeptide)-linker peptide-K19 (first polypeptide)-C) (other)
chain: MGGLDYKDDDDKASAGEGDQQDAAHNMGNHLPLLPAESEEEDEMEVEDQDSKEAKKPNIINFDTSLPTSHTYLGADMEEFHGRTLHDDDSCQVIPVLPQVMMILIPGQTLPLQLFHPQEVSMVRNLIQKDRTFAVLAYSNVQEREAQFGTTAEIYAYREEQDFGIEIVKVKAIGRQRFKVLELRTQSDGIQQAKVQILPECVLPSTMSAVQLESLNKCQIFPSKPVSREDQCSYKWWQKYQKRKFHCANLTSWPRWLYSLYDAETLMDRIKKQLREWDENLKDDSLPSNPIDFSYRVAACLPIDDVLRIQLLKIGSAIQRLRCELDIMNKCTSSGSGSGSGMDLGKKLLEAARAGQDDEVRILMANGADVNASDRGGGTPLHLAAAGGHLEIVEVLLKRGADVSAADLHGQSPLHLAAMVGHLEIVEVLLKYGADVNAKDTMGATPLHLAARSGHLEIVEELLKNGADMNAQDKFGKTTFDISTDNGNEDLAEILQKL
B3: recombinant polypeptide K19-SOCS2 (N-K19 (first polypeptide)-linker peptide-SOCS2 (second polypeptide)-C) (other)
chain: MDLGKKLLEAARAGQDDEVRILMANGADVNASDRGGGTPLHLAAAGGHLEIVEVLLKRGADVSAADLHGQSPLHLAAMVGHLEIVEVLLKYGADVNAKDTMGATPLHLAARSGHLEIVEELLKNGADMNAQDKFGKTTFDISTDNGNEDLAEILQKLSGSGSGSGPRNGTVHLYLTKPLYTSAPSLQHLCRLTINKCTGAIWGLPLPTRLKDYLEEYKFQVGS
B4: recombinant polypeptide SKP2-K19 (N-SKP2 (second polypeptide)-linker peptide-K19 (first polypeptide)-C) (other)
chain: MGGLDYKDDDDKASHRKHLQEIPDLSSNVATSFTWGWDSSKTSELLSGMGVSALEKEEPDSENIPQELLSNLGHPESPPRKRLKSKGSDKDFVIVRRPKLNRENFPGVSWDSLPDELLLGIFSCLCLPELLKVSGVCKRWYRLASDESLWQTLDLTGKNLSGSGSGSGMDLGKKLLEAARAGQDDEVRILMANGADVNASDRGGGTPLHLAAAGGHLEIVEVLLKRGADVSAADLHGQSPLHLAAMVGHLEIVEVLLKYGADVNAKDTMGATPLHLAARSGHLEIVEELLKNGADMNAQDKFGKTTFDISTDNGNEDLAEILQKL
B5: recombinant polypeptide K19-ASB1 (N-K19 (first polypeptide)-linker peptide-ASB1 (second polypeptide)-C) (other)
chain: MDLGKKLLEAARAGQDDEVRILMANGADVNASDRGGGTPLHLAAAGGHLEIVEVLLKRGADVSAADLHGQSPLHLAAMVGHLEIVEVLLKYGADVNAKDTMGATPLHLAARSGHLEIVEELLKNGADMNAQDKFGKTTFDISTDNGNEDLAEILQKLSGSGSGSGVKWESLGPESRGRRKVDPEALQVFKEARSVPRTLLCLCRVAVRRALGKHRLHLIPSLPLPDPIKKFLLHEGS
B6: recombinant polypeptide K19-SPOP (N-K19 (first polypeptide)-linker peptide-SPOP (second polypeptide)-C) (other)
chain: MDLGKKLLEAARAGQDDEVRILMANGADVNASDRGGGTPLHLAAAGGHLEIVEVLLKRGADVSAADLHGQSPLHLAAMVGHLEIVEVLLKYGADVNAKDTMGATPLHLAARSGHLEIVEELLKNGADMNAQDKFGKTTFDISTDNGNEDLAEILQKLGSGSGSGSVNISGQNTMNMVKVPECRLADELGGLWENSRFTDCCLCVAGQEFQAHKAILAARSPVFSAMFEHEMEESKKNRVEINDVEPEVFKEMMCFIYTGKAPNLDKMADDLLAAADKYALERLKVMCEDALCSNLSVENAAEILILADLHSADQLKTQAVDFINYHASDVLETSGWKSMVVSHPHLVAEAYRSLASAQCPFLGPPRKRLKQS
B7: recombinant polypeptide βTrCP-K19 (N-βTrCP (second polypeptide)-linker peptide-K19 (first polypeptide)-C) (other)
chain: MGGLDYKDDDDKASDPAEAVLQEKALKFMNSSEREDCNNGEPPRKIIPEKNSLRQTYNSCARLCLNQETVCLASTAMKTENCVAKTKLANGTSSMIVPKQRKLSASYEKEKELCVKYFEQWSESDQVEFVEHLISQMCHYQHGHINSYLKPMLQRDFITALPARGLDHIAENILSYLDAKSLCAAELVCKEWYRVTSDGMLWKKLIERMVRTDSLWRGLAERRGWGQYLFKNKPPDGNAPPNSFYRALYPKIIQDIETIESNWRCGRHSLQRIHCRSGSGSGSGMDLGKKLLEAARAGQDDEVRILMANGADVNASDRGGGTPLHLAAAGGHLEIVEVLLKRGADVSAADLHGQSPLHLAAMVGHLEIVEVLLKYGADVNAKDTMGATPLHLAARSGHLEIVEELLKNGADMNAQDKFGKTTFDISTDNGNEDLAEILQKL
B8: recombinant polypeptide FBW7-K19 (N-FBW7 (second polypeptide)-linker peptide-K19 (first polypeptide)-C) (other)
chain: MGGLDYKDDDDKASCVPRSGLILSCICLYCGVLLPVLLPNLPFLTCLSMSTLESVTYLPEKGLYCQRLPSSRTHGGTESLKGKNTENMGFYGTLKMIFYKMKRKLDHGSEVRSFSLGKKPCKVSEYTSTTGLVPCSATPTTFGDLRAANGQGQQRRRITSVQPPTGLQEWLKMFQSWSGPEKLLALDELIDSCEPTQVKHMMQVIEPQFQRDFISLLPKELALYVLSFLEPKDLLQAAQTCRYWRILAEDNLLWREKCKEEGIDEPLHIKRRKVIKPGFIHSPWKSAYIRQHRIDTNWRRGELKSPSGSGSGSGMDLGKKLLEAARAGQDDEVRILMANGADVNASDRGGGTPLHLAAAGGHLEIVEVLLKRGADVSAADLHGQSPLHLAAMVGHLEIVEVLLKYGADVNAKDTMGATPLHLAARSGHLEIVEELLKNGADMNAQDKFGKTTFDISTDNGNEDLAEILQKL
B9: recombinant polypeptide DDB2-K19 (N-DDB2 (second polypeptide)-linker peptide-K19 (first polypeptide)-C) (other)
chain: MGGLDYKDDDDKASAPKKRPETQKTSEIVLRPRNKRSRSPLELEPEAKKLCAKGSGPSRRCDSDCLWVGLAGPQILPPCRSIVRTLHQHKLGRASWPSVQQGLQQSFLHTLDSYRILQKAAPFDRRASGSGSGSGMDLGKKLLEAARAGQDDEVRILMANGADVNASDRGGGTPLHLAAAGGHLEIVEVLLKRGADVSAADLHGQSPLHLAAMVGHLEIVEVLLKYGADVNAKDTMGATPLHLAARSGHLEIVEELLKNGADMNAQDKFGKTTFDISTDNGNEDLAEILQKL

target: KRAS protein (UniProt P01116 1-186, limits assumed); test: cell-based or functional assay

| Binder | Percentage of KRAS protein level (Western Blot, H358 cells, 6 hours after transfection; protein level of EV29-K19-VHKC as control) |
| --- | --- |
| B1 | 28.3% |
| B2 | 28.2% |
| B3 | 47.3% |
| B4 | 20.4% |
| B5 | 39.8% |
| B6 | 22.4% |
| B7 | 19.3% |
| B8 | 45.9% |
| B9 | 52.6% |
